As usually defined, the Ki is a dissociation constant, usually derived from enzyme kinetics or from competition with a known ligand.

Results on five molecules are retold here after patent US20080187980A1, “Method for identifying potential agonists or antagonists using the three-dimensional structure of caspase-7” (Vertex Pharmaceuticals Incorporated, priority 1999, published 2008).

In one data set the target is T1, caspase-1 (Homo sapiens, UniProt P29466).
T1 sequence (P29466 120-297 limits assumed): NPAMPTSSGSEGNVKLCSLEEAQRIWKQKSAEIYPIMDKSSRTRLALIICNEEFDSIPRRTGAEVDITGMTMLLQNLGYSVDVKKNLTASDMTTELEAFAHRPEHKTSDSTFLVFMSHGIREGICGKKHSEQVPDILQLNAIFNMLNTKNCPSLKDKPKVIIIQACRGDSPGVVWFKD
T1 sequence (P29466 317-404 limits assumed): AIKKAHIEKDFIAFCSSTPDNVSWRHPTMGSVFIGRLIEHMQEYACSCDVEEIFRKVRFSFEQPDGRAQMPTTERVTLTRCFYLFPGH
The following applies: cited from earlier work; for Ki: reported, Garcia-Calvo et al. 1998.

Another data set deals with T2, caspase-7 (Homo sapiens, UniProt P55210).
T2 sequence (P55210 24-198 limits assumed): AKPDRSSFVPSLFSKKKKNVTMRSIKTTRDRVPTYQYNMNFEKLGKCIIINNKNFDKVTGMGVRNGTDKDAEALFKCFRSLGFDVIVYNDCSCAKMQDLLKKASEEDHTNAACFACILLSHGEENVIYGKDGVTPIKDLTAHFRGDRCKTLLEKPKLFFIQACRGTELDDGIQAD
T2 sequence (P55210 207-303 limits assumed): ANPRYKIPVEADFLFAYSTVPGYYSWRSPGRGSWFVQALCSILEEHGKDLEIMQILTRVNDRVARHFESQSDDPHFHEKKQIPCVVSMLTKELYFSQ
The following applies: reported, Garcia-Calvo et al. 1998; cited from earlier work.

In a further data set the target is caspase-8 (Homo sapiens, UniProt Q14790). The following applies: reported, Garcia-Calvo et al. 1998; cited from earlier work.
A further data set relates to group III caspases. The following applies: cited from earlier work.
The next data set has as its target T3, Caspase-4 (Homo sapiens, UniProt P49662).
T3 sequence (P49662 81-270 limits assumed): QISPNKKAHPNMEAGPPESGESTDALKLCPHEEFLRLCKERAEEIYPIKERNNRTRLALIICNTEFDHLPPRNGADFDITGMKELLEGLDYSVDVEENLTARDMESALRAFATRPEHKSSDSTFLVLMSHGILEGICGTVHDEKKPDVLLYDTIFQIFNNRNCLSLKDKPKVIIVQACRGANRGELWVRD
T3 sequence (P49662 290-377 limits assumed): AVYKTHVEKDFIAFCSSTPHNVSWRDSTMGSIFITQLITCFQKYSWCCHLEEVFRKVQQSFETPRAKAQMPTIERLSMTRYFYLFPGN
Particulars: Garcia-Calvo et al. 1998; cited from earlier work.

Another data set deals with T4, Caspase-5 (Homo sapiens, UniProt P51878).
T4 sequence (P51878 137-327 limits assumed): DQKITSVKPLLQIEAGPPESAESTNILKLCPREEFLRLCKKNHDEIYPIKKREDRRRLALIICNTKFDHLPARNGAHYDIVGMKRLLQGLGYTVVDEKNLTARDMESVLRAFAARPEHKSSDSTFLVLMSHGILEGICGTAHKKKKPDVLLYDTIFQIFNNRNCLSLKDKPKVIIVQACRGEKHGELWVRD
T4 sequence (P51878 347-434 limits assumed): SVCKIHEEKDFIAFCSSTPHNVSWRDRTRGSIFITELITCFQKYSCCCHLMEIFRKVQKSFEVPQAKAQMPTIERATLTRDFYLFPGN
The following applies: Garcia-Calvo et al. 1998; cited from earlier work.

Data set [1] has as its system all other group II and group III caspases except caspase-8. The following applies: group II and group III caspases other than caspase-8; cited from earlier work.
Data set [2] has as its target T5, Ac-DEVD-aminoemethylcoumarin.
T5 chain: DEVD

Sequence of caspase-8 (Q14790 217-374 limits assumed, one chain of several): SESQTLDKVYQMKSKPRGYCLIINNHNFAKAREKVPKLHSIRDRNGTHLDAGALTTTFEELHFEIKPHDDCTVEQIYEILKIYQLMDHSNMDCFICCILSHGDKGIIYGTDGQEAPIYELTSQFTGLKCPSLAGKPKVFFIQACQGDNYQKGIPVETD

Consider “acetyl-Asp-Glu-Val-Asp-CHO [Ac-DEVD-CHO]”, for which the results for the Ki with caspase-1, in the data set with caspase-7 and with caspase-8 were 18 nM, 1.6 nM and 0.92 nM, respectively.

With “Ac-YVAD-CHO: tetrapeptide aldehyde inhibitor, SEQ ID NO: 4”, in the data set with caspase-1, the “inhibitory potency against caspase-1 (in words)” value is “good inhibitory potency”. Also, the “inhibitory potency against group III caspases (in words)” value in the data set with group III caspases was “modest inhibitory potency”.

As to “AcWEHD-CHO (Ac-WEHD-aldehyde; SMILES CC(=O)N[C@@H](Cc1c[nH]c2ccccc12)C(=O)N[C@@H](CCC(=O)O)C(=O)N[C@@H](Cc1c[nH]cn1)C(=O)N[C@H](C=O)CC(=O)O)”, the Ki in the data set with caspase-1 is 0.056 nM; with caspase-8 it was 21 nM; with Caspase-4 it was 97 nM; with Caspase-5, 43 nM. Also, in data set [1], the “inhibition of all other group II and group III caspases except caspase-8 (in words)” value was “poor inhibitor”.

B1: Wild-type caspase-8 (protein)
chain 1: RGYCLIINNHNFAKAREKVPKLHSIRDRNGTHLDAGALTTTFEELHFEIKPHDDCTVEQIYEILKIYQLMDHSNMDCFICCILSHGDKGIIYGTDGQEAPIYELTSQFTGLKCPSLAGKPKVFFIQACQGDNYQKGIPVETD
chain 2: LSSPQTRYIPDEADFLLGMATVNNCVSYRNPAEGTWYIQSLCQSLRERCPRGDDILTILTEVNYEVSNKDDKKNMGKQMPQPTFTLRKKLVFPSD
As to B1, in data set [2], the kcat/Km entry was “both enzymes appear to be indistinguishable, yielding a kcat/Km of 1×10^5 Ml-s^1-^1”.

B2: Triple mutant caspase-8 (residues 233-479; Lys to Arg at residues 246, 250 and 253; Pro370 and Val371 removed) (protein)
chain: RGYCLIINNHNFARARERVPRLHSIRDRNGTHLDAGALTTTFEELHFEIKPHDDCTVEQIYEILKIYQLMDHSNMDCFICCILSHGDKGIIYGTDGQEAPIYELTSQFTGLKCPSLAGKPKVFFIQACQGDNYQKGIPVETDSEEQPYLEMDLSSPQTRYIPDEADFLLGMATVNNCVSYRNPAEGTWYIQSLCQSLRERCPRGDDILTILTEVNYEVSNKDDKKNMGKQMPQPTFTLRKKLVFPSD
Consider B2, for which the kcat/Km result in data set [2] is given as “both enzymes appear to be indistinguishable, yielding a kcat/Km of 1×10^5 Ml-s^1-^1”.
